Here are results for eight molecules from patent US20260070987A1.

Substitutions are numbered along the chain they refer to. Names may count otherwise.

The labels stand for the following.
B1: equine IgG1 N434W (antibody, part only; not given: Variable domains, not shown: another chain or arm of the molecule)
constant: ASTTAPKVFALAPGCGTTSDSTVALGCLVSGYFPEPVKVSWNSGSLTSGVHTFPSVLQSSGFYSLSSMVTVPASTWTSETYICNVVHAASNFKVDKRIEPIPDNHQKVCDMSKCPKCPAPELLGGPSVFIFPPNPKDTLMITRTPEVTCVVVDVSQENPDVKFNWYMDGVEVRTATTRPKEEQFNSTYRVVSVLRIQHQDWLSGKEFKCKVNNQALPQPIERTITKTKGRSQEPQVYVLAPHPDELSKSKVSVTCLVKDFYPPEINIEWQSNGQPELETKYSTTQAQQDSDGSYFLYSKLSVDRNRWQQGTTFTCGVMHEALHWHYTQKNVSKNPGK
B2: equine IgG1 N434F (antibody, part only; not given: variable domains, not shown: another chain or arm of the molecule)
constant: B1 constant with W324F
B3: equine IgG7 T286Q mutant (antibody, part only; not given: variable domains, not shown: another chain or arm of the molecule)
constant: ASTTAPKVFPLASHSAATSGSTVALGCLVSSYFPEPVTVSWNSGALTSGVHTFPSVLQSSGLYSLSSMVTVPASSLKSQTYICNVAHPASSTKVDKKIVIKECGGCPTCPECLSVGPSVFIFPPKPKDVLMISRTPTVTCVVVDVGHDFPDVQFNWYVDGVETHQATTEPKQEQNNSTYRVVSILAIQHKDWLSGKEFKCKVNNQALPAPVQKTISKPTGQPREPQVYVLAPHRDELSKNKVSVTCLVKDFYPTDIDIEWKSNGQPEPETKYSTTPAQLDSDGSYFLYSKLTVETNRWQQGTTFTCAVMHEALHNHYTEKSVSKSPGK
B4: equine IgG7 T286Y mutant (antibody, part only; not given: Variable domains, not shown: another chain or arm of the molecule)
constant: B3 constant with Q165Y
B5: equine IgG7 T286S mutant (antibody, part only; not given: variable domains, not shown: another chain or arm of the molecule)
constant: B3 constant with Q165S
B6: equine IgG7 T286V mutant (antibody, part only; not given: Variable domains, not shown: another chain or arm of the molecule)
constant: B3 constant with Q165V
B7: equine IgG7 T286W mutant (antibody, part only; not given: variable domains, not shown: another chain or arm of the molecule)
constant: B3 constant with Q165W
B8: equine IgG7 T286R mutant (antibody, part only; not given: variable domains, not shown: another chain or arm of the molecule)
constant: B3 constant with Q165R

The first experiment concerns the target equine FcRn (large alpha subunit p51) / equine beta-2-microglobulin complex, biotinylated (equine) (UniProt P30441). The experiment in a line: SPR (Biacore), pH 6. In general terms: Surface plasmon resonance follows binding to a sensor surface in real time, without labels.
Sequence of UniProt P30441 (P30441 21-118, one chain of several): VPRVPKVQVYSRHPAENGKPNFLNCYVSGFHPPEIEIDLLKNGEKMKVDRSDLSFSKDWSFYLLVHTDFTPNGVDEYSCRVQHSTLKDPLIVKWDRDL
The molecule B1 displayed a Kd of 1.86 nM.
For B2, the Kd turned out to be 2.83 nM.

For the next experiment, the target named is equine FcRn (large alpha subunit p51) in complex with equine beta-2-microglobulin (equine) (UniProt F6XZ61). Description: SPR (Biacore), pH 6.
Sequence of UniProt F6XZ61 (F6XZ61 entry or part of it, one chain of several): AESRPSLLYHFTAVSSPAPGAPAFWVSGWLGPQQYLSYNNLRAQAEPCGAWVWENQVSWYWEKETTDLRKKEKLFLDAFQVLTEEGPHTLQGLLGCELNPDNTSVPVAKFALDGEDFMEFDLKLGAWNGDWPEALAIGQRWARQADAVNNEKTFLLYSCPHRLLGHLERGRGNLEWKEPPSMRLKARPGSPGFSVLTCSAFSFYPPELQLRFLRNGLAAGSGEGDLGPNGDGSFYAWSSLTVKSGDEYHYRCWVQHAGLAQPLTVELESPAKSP
Consider B3, for which the Kd was 7.7 nM.
On the same count and under the same terms, the same measure for B4: 14.9 nM.
In turn, B5 displayed a Kd of 17.1 nM.
The molecule B6 gave a Kd of 2.3 nM.
On to B7, for which the Kd was 15.4 nM.
B8 came in with a Kd of 7.8 nM. Compared with the last molecule, the Kd is about 2-fold lower.

The next experiment concerns the target equine FcRn (large alpha subunit p51) / equine beta-2-microglobulin complex, biotinylated (equine) (UniProt P30441). Description: SPR (Biacore), pH 7.4.
The molecule B1 gave a Kd of 7310 nM.
Molecule B2 returned a Kd of 14600 nM.

By Kd is commonly meant the constant that tells how readily two partners part at equilibrium. A lower Kd goes with tighter binding.
